From patent US20240270839A1 (ELPISCIENCE SUZHOU BIOPHARMA, published 2024)

Assays:
[1] = target: T1, human CLDN18.2 (hCLDN18.2), expressed on cells (human); assay: FACS, SNU620 cells over-expressing hCLDN18.2
T1 construct: the constructs in the cell lines are not described; also called Claudin18.2; HEK293-hCLDN18.2

[2] = target: T1, human CLDN18.2 (hCLDN18.2), expressed …; assay: FACS, MFC cells over-expressing hCLDN18.2

Row | Binder | EC50 [1] | EC50 [2]
1 | hu35B4.H2L2 (antibody, V domains shown, humanized 35B4) VH: EVQLLESGGGLVQPGGSLRLSCAASGFTLSSYALSWVRQAPGKGLEWVSYISNLGGSTFYPDTVKGRFTISRDNSKNTLYLQMNSLRAEDTAVYYCATHLYNYDAFASWGQGTLVTVSS VL: DIQLTQSPSFLSASVGDRVTITCRASSSVNYIHWYQQKPGKAPKALIYATSNLASGVPSRFSGSGSGTEYTLTISSLQPEDFATYYCQQWNSNPLTFGQGTKLEIK | 0.439 nM | 
2 | hu35B4.H1L3 (antibody, V domains shown, humanized 35B4) VH: EVQLLESGGGLVQPGGSLRLSCAASGFTLSSYALSWVRQAPGKGLEWVSYISNLGGSTFYPDTVKGRFTISRDNSKNTLYLQMNSLRAEDTAVYYCAKHLYNYDAFASWGQGTLVTVSS VL: DIQLTQSPSFLSASVGDRVTITCRASSSVNYIHWYQQKPGKSPKALIYATSNLASGVPSRFSGSGSGTEYTLTISSLQPEDFATYYCQQWNSNPLTFGQGTKLEIK | 0.382 nM | 
3 | hu22E12.H2L2 (antibody, V domains shown, humanized 22E12) VH: QVQLVQSGAEVKKPGASVKVSCKASGYTFTNWVHWVRQAPGQGLEWMGEINPTNARSNYNEKFKKRVTMTRDRSTSTVYMELSSLRSEDTAVYFCAGIYYGNSFAHWGQGTLVTVSS VL: DIVMTQSPDSLAVSLGERATINCKSSQSLLNAGNQKNYLTWYQQKPGQPPKLLIYWSSTRESGVPDRFSGSGSGTDFTLTISSLQAEDVAVYHCQNNYYYPLTFGGGTKLEIK |  | 0.586 nM
4 | hu22E12.H4L2 (antibody, V domains shown, humanized 22E12) VH: QVQLVQSGAEVVKPGASVKLSCKASGYTFTNWVHWVIQAPGQGLEWIGEINPTNARSNYNEKFKKRVTLTLDRSTSTVYMELSSLRSEDTAVYFCAGIYYGNSFAHWGQGTLVTVSS VL: DIVMTQSPDSLAVSLGERATINCKSSQSLLNAGNQKNYLTWYQQKPGQPPKLLIYWSSTRESGVPDRFSGSGSGTDFTLTISSLQAEDVAVYHCQNNYYYPLTFGGGTKLEIK |  | 1.05 nM
5 | hu22E12.H4L1 (antibody, V domains shown, humanized 22E12) VH: QVQLVQSGAEVVKPGASVKLSCKASGYTFTNWVHWVIQAPGQGLEWIGEINPTNARSNYNEKFKKRVTLTLDRSTSTVYMELSSLRSEDTAVYFCAGIYYGNSFAHWGQGTLVTVSS VL: DIVMTQSPDSLAVSLGERATINCKSSQSLLNAGNQKNYLTWYQQKPGQPPKLLIYWSSTRESGVPDRFSGSGSGTDFTLTISSLQAEDVAVYYCQNNYYYPLTFGGGTKLEIK |  | 1.16 nM
6 | hu22E12.H4L3 (antibody, V domains shown, humanized 22E12) VH: QVQLVQSGAEVVKPGASVKLSCKASGYTFTNWVHWVIQAPGQGLEWIGEINPTNARSNYNEKFKKRVTLTLDRSTSTVYMELSSLRSEDTAVYFCAGIYYGNSFAHWGQGTLVTVSS VL: DIVMTQSPDSLAVSLGERVTLNCKSSQSLLNAGNQKNYLTWYQQKPGQPPKLLIYWSSTRESGVPDRFSGSGSGTDFTLTISSVQAEDVAVYHCQNNYYYPLTFGGGTKLEIK |  | 2 nM
7 | hu22E12.H2L3 (antibody, V domains shown, humanized 22E12) VH: QVQLVQSGAEVKKPGASVKVSCKASGYTFTNWVHWVRQAPGQGLEWMGEINPTNARSNYNEKFKKRVTMTRDRSTSTVYMELSSLRSEDTAVYFCAGIYYGNSFAHWGQGTLVTVSS VL: DIVMTQSPDSLAVSLGERVTLNCKSSQSLLNAGNQKNYLTWYQQKPGQPPKLLIYWSSTRESGVPDRFSGSGSGTDFTLTISSVQAEDVAVYHCQNNYYYPLTFGGGTKLEIK |  | 0.642 nM

Now from value to binder:

Row | EC50 [1] | EC50 [2] | Binder
8 | 0.525 nM |  | hu35B4.H1L1 (antibody, V domains shown, humanized 35B4) VH: EVQLLESGGGLVQPGGSLRLSCAASGFTLSSYALSWVRQAPGKGLEWVSYISNLGGSTFYPDTVKGRFTISRDNSKNTLYLQMNSLRAEDTAVYYCAKHLYNYDAFASWGQGTLVTVSS VL: DIQLTQSPSFLSASVGDRVTITCRASSSVNYIHWYQQKPGKAPKLLIYATSNLASGVPSRFSGSGSGTEFTLTISSLQPEDFATYYCQQWNSNPLTFGQGTKLEIK
9 | 0.355 nM |  | hu35B4.H2L1 (antibody, V domains shown, humanized 35B4) VH: EVQLLESGGGLVQPGGSLRLSCAASGFTLSSYALSWVRQAPGKGLEWVSYISNLGGSTFYPDTVKGRFTISRDNSKNTLYLQMNSLRAEDTAVYYCATHLYNYDAFASWGQGTLVTVSS VL: DIQLTQSPSFLSASVGDRVTITCRASSSVNYIHWYQQKPGKAPKLLIYATSNLASGVPSRFSGSGSGTEFTLTISSLQPEDFATYYCQQWNSNPLTFGQGTKLEIK
10 | 0.474 nM |  | hu35B4.H1L4 (antibody, V domains shown, humanized 35B4) VH: EVQLLESGGGLVQPGGSLRLSCAASGFTLSSYALSWVRQAPGKGLEWVSYISNLGGSTFYPDTVKGRFTISRDNSKNTLYLQMNSLRAEDTAVYYCAKHLYNYDAFASWGQGTLVTVSS VL: DIQLTQSPSFLSASVGDRVTMTCRASSSVNYIHWYQQKPGKSPKALIYATSNLASGVPSRFSGSGSGTEYTLTISSVQPEDFATYYCQQWNSNPLTFGQGTKLEIK
11 |  | 1.31 nM | hu22E12.H1L1 (antibody, V domains shown, humanized 22E12) VH: QVQLVQSGAEVKKPGASVKVSCKASGYTFTNWVHWVRQAPGQGLEWMGEINPTNARSNYNEKFKKRVTMTRDTSTSTVYMELSSLRSEDTAVYYCARIYYGNSFAHWGQGTLVTVSS VL: DIVMTQSPDSLAVSLGERATINCKSSQSLLNAGNQKNYLTWYQQKPGQPPKLLIYWSSTRESGVPDRFSGSGSGTDFTLTISSLQAEDVAVYYCQNNYYYPLTFGGGTKLEIK
12 |  | 1.19 nM | hu22E12.H3L3 (antibody, V domains shown, humanized 22E12) VH: QVQLVQSGAEVVKPGASVKVSCKASGYTFTNWVHWVIQAPGQGLEWMGEINPTNARSNYNEKFKKRVTMTLDRSTSTVYMELSSLRSEDTAVYFCAGIYYGNSFAHWGQGTLVTVSS VL: DIVMTQSPDSLAVSLGERVTLNCKSSQSLLNAGNQKNYLTWYQQKPGQPPKLLIYWSSTRESGVPDRFSGSGSGTDFTLTISSVQAEDVAVYHCQNNYYYPLTFGGGTKLEIK
13 |  | 1.08 nM | hu22E12.H1L3 (antibody, V domains shown, humanized 22E12) VH: QVQLVQSGAEVKKPGASVKVSCKASGYTFTNWVHWVRQAPGQGLEWMGEINPTNARSNYNEKFKKRVTMTRDTSTSTVYMELSSLRSEDTAVYYCARIYYGNSFAHWGQGTLVTVSS VL: DIVMTQSPDSLAVSLGERVTLNCKSSQSLLNAGNQKNYLTWYQQKPGQPPKLLIYWSSTRESGVPDRFSGSGSGTDFTLTISSVQAEDVAVYHCQNNYYYPLTFGGGTKLEIK
14 |  | 1.23 nM | hu22E12.H3L1 (antibody, V domains shown, humanized 22E12) VH: QVQLVQSGAEVVKPGASVKVSCKASGYTFTNWVHWVIQAPGQGLEWMGEINPTNARSNYNEKFKKRVTMTLDRSTSTVYMELSSLRSEDTAVYFCAGIYYGNSFAHWGQGTLVTVSS VL: DIVMTQSPDSLAVSLGERATINCKSSQSLLNAGNQKNYLTWYQQKPGQPPKLLIYWSSTRESGVPDRFSGSGSGTDFTLTISSLQAEDVAVYYCQNNYYYPLTFGGGTKLEIK
15 |  | 0.656 nM | hu22E12.H2L1 (antibody, V domains shown, humanized 22E12) VH: QVQLVQSGAEVKKPGASVKVSCKASGYTFTNWVHWVRQAPGQGLEWMGEINPTNARSNYNEKFKKRVTMTRDRSTSTVYMELSSLRSEDTAVYFCAGIYYGNSFAHWGQGTLVTVSS VL: DIVMTQSPDSLAVSLGERATINCKSSQSLLNAGNQKNYLTWYQQKPGQPPKLLIYWSSTRESGVPDRFSGSGSGTDFTLTISSLQAEDVAVYYCQNNYYYPLTFGGGTKLEIK
16 |  | 1.25 nM | hu22E12.H3L2 (antibody, V domains shown, humanized 22E12) VH: QVQLVQSGAEVVKPGASVKVSCKASGYTFTNWVHWVIQAPGQGLEWMGEINPTNARSNYNEKFKKRVTMTLDRSTSTVYMELSSLRSEDTAVYFCAGIYYGNSFAHWGQGTLVTVSS VL: DIVMTQSPDSLAVSLGERATINCKSSQSLLNAGNQKNYLTWYQQKPGQPPKLLIYWSSTRESGVPDRFSGSGSGTDFTLTISSLQAEDVAVYHCQNNYYYPLTFGGGTKLEIK
